To fix the notation:
B1: MR241 (antibody, V domains shown)
VH: QVQLQESGPGLVKPSETLSLTCTVSGASISGNFWSWIRQPPGKGLEYIGYMSDIGTTNYSPSLKSRVTISVDTSKNQFSLNLTSVTAADAAVYYCARLVAVPGFFYHYYMDVWGEGTLVTVSS
VL: DIVMTQSPSSVSASVGDRVTITCRASQGISGWLAWYQQKPGKAPKLLIYATSTLQSGVPSRFSGSESGTAFTLTISSLQPEDFATYYCQQANSFPLTFGGGTKVEIK
B2: MR78 human monoclonal antibody (antibody, V domains shown)
VH: QLQLQESGPGLVKPSETLSLTCTVSGGSISSSSYYWGWIRQPPGKGLEWIGSVYYSGGASYNPSLKSRATISVDTSKNQFSLNLDSVSAADTAIYYCASIYGSGTFYYYFYMDVWGKGSTVTVSS
VL: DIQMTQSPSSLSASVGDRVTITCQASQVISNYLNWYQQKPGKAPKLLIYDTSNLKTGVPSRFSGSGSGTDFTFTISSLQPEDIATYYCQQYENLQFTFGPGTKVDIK
B3: MR201 (antibody, V domains shown)
VH: QLQLQESGPGLVKPSETLFLSCAVSGGSIAGSTHYWGWIRQPPGKGLEWIGSISESGSTYHNPSLKSRVTISVDTSKNYFSLNLSSVTAADTAVYYCARIVGQSGTFIYYYYAMDVWGTGTLVTVSS
VL: DIQLTQSPSFLSASVGDRVTITCRASQGISSYLAWYQQKPGKAPKLLIYAASTLQRGVPSRFSGSGSGTEFTLTISSLQPEDSATYYCQQLNSYLALIFGGGT

The first test has as its target T1, EBOV Mayinga strain cleaved GP ectodomain (Ebola virus, Mayinga strain, UniProt Q05320 33-650).
T1 chain: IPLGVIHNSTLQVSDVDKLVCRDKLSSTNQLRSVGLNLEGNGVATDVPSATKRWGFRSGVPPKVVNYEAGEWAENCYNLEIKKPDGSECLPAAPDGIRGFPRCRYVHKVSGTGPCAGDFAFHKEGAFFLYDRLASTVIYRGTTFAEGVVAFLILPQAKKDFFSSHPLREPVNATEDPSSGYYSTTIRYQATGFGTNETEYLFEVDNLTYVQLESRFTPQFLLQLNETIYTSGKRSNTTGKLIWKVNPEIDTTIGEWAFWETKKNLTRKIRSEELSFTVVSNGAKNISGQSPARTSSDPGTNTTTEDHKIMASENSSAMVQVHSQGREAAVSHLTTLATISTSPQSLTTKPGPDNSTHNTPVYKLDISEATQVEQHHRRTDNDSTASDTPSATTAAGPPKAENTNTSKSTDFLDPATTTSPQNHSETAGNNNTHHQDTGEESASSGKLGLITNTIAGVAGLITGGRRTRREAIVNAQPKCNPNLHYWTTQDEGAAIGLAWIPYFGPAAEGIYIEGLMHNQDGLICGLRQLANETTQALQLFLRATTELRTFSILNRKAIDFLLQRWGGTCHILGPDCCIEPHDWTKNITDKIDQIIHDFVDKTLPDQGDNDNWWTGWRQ
In words: ELISA. On the technique in general: An ELISA detects its analyte on a solid surface through an enzyme-linked reagent.
The EC50 is the concentration giving half of the maximal effect. Read a low EC50 as greater potency. Regarding B1, the EC50 was greater than 1000 mg/L.

Molecule B2 yielded an EC50 of 107 mg/L.

For the molecule B3, the EC50 was greater than 1000 mg/L.

Another test addresses T2, Angola strain MARV GP ectodomain containing the mucin-like domain (Marburg virus, Angola strain, UniProt Q1PD50 19-648).
T2 chain: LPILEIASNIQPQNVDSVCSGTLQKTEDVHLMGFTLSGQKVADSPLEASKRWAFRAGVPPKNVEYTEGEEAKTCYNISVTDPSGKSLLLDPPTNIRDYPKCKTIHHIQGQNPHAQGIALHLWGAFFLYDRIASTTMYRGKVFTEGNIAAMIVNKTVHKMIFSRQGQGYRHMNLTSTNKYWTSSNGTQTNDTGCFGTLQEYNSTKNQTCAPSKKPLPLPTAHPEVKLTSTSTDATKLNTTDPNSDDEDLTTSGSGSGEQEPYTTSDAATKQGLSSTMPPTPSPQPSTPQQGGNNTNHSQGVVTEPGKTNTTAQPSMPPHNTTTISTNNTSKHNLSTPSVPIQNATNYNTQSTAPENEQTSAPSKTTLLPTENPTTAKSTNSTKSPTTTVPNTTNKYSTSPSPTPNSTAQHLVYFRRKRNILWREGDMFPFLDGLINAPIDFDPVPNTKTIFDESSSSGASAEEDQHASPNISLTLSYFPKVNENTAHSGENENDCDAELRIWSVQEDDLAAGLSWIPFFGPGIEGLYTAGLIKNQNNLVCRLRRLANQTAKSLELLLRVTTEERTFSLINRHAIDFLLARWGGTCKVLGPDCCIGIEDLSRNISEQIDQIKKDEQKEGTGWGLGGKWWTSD
The experiment in a line: ELISA.
The molecule B1 displayed an EC50 of 2.2 mg/L.

For the molecule B2, the EC50 is 1.4 mg/L.

In the case of B3, the EC50 stood at 1.5 mg/L. This EC50 and that of the molecule before are within 1.5-fold of each other.

The next test has as its target Angola strain MARV GP ectodomain lacking residues 257-425 of the mucin-like domain (Marburg virus, Angola strain, UniProt Q1PD50 19-648). The experiment in a line: ELISA.
The molecule B1 displayed a 50% effective concentration (EC50) of 4 mg/L.

In turn, B2 registered an EC50 of 2.3 mg/L.

B3 came in with an EC50 of 1.9 mg/L.

The next test has as its target T3, Ravn strain cleaved MARV GP ectodomain (Marburg virus, Ravn strain, UniProt Q1PDC7 19-648).
T3 chain: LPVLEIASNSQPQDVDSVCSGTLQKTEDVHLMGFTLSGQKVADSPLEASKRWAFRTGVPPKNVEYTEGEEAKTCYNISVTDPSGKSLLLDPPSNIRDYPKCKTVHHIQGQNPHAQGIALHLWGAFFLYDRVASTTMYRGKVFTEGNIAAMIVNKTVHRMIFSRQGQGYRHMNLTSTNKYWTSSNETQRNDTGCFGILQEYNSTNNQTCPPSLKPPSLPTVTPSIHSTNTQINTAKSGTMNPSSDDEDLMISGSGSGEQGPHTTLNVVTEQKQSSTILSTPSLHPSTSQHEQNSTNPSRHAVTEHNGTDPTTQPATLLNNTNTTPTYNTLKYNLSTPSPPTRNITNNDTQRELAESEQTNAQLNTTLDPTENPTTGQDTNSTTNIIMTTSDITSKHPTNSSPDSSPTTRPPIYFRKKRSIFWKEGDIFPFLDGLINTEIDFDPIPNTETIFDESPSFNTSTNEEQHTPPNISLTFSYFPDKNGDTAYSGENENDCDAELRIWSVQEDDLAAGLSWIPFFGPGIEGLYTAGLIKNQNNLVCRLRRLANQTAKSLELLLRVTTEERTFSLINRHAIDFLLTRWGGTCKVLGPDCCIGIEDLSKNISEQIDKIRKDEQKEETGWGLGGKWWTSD
In words: ELISA.
B1 returned an EC50 of 1.2 mg/L.

B2 showed an EC50 of 1.1 mg/L.

The molecule B3 had an EC50 of 0.5 mg/L.

Another test has as its target T4, EBOV Mayinga strain GP ectodomain containing the glycan cap and mucin-like domain (Ebola virus, Mayinga strain, UniProt Q05320 33-650).
T4 chain: T1 chain
In words: ELISA.
B1 displayed an EC50 greater than 1000 mg/L.

As for B2, the EC50 was greater than 1000 mg/L.

The molecule B3 showed a concentration for a half-maximal effect (EC50) greater than 1000 mg/L.

The next test has as its target EBOV Mayinga strain GP ectodomain lacking residues 314-462 of the mucin-like domain (Ebola virus, Mayinga strain, UniProt Q05320 33-650). In words: ELISA.
Molecule B1 came in with an EC50 greater than 1000 mg/L.

B2: the EC50 is greater than 1000 mg/L.

Consider B3, for which the EC50 is greater than 1000 mg/L.

The values are drawn from patent US20210324051A1 (published 2021).
